“Also recorded” adds a separate entry of the source.
Assays:
isolated mouse acini [1] = test: Trypsin activity (zymogen activation) in isolated mouse pancreatic acini; format: cell-based
Experimental: (§1) FIGS. 9A-9E, depict the results of experiments that show recombinant exogenous renalase reduce zymogen activation and injury in vitro in mice. (FIG. 9A) Isolated WT mouse acini were pretreated for 30 minutes with recombinant renalase (25 μg/mL; 0.1 μM) and then treated with either (FIG. 9A, 9D, 9E) physiologic (0.1 nM) and supraphysiologic (100 nM) cerulein or (FIG. 9B) physiologic (1 μM) or supraphysiologic (1000 μM) carbachol for 30 minutes. Trypsin activity (FIGS. 9A-9C), MTT accumulation (FIG. 9D), and LDH release (FIG. 9E) were assayed using a fluorogenic substrate. For FIG. 9C, isolated acini from renalase ^−/^− mice were treated pretreated with recombinant renalase (25 μg/mL) and then treated with cerulein (0.1 nM or 100 nM) for 30 minutes. *p<0.05 vs. supraphysiologic cerulein or carbachol, # p<0.05 vs. WT, n=3, +/−SEM.
FIGS. 13A-13C, depict the results of experiments showing caloxin blocks the protective effects of renalase. Isolated WT mouse acini were pretreated for 30 minutes with caloxin 1b (100 μM) and/or recombinant renalase (25 μg/mL) and then treated with supraphysiologic (100 nM) cerulein (CER) and assayed for trypsin activity (FIG. 13A) or MTT conversion (FIG. 13B). *p<0.05 vs. CER, # p<0.05 vs. CER+renalase. WT, n=3, +/−SEM.
Next, it was assessed whether pretreatment with recombinant human renalase reduces injury in pancreatitis. This was first assessed in isolated groups of murine acinar cells (acini) that were exposed to supraphysiologic concentrations of cerulein and carbachol (which induces early acinar cell pancreatitis responses) in isolated WT mouse acini and acini isolated from renalase deficient mice in vitro (FIG. 9). The recombinant renalase reduced trypsinogen activation induced by either cerulein (FIG. 9A) or carbachol (FIG. 9B). […] Renalase had no effect on untreated acini or acini treated with physiologic stimulation.

[2] = cited from earlier work
ERK = conditions: HK-2 cell, treatment alone; Wang et al., 2014; cited from earlier work
renalase KO mice = conditions: Wang et al., 2014; cited from earlier work
WT mice = test: Cerulein-induced pancreatitis in vivo; parameters: species or system mouse; conditions: single IP dose 2 hours after initiating cerulein pancreatitis; sacrificed at hour 7
Experimental: FIGS. 10A-10G, depict the results of experiments showing that pretreatment with renalase peptide (RP-220) ameliorates cerulein-induced pancreatitis in vivo. WT mice were treated with 6 hourly IP injections of cerulein (CER, 40 mcg/kg). IP renalase peptide, RP-220 (renalase, 1.3 mg/kg) was given 1 hour before first cerulein injection. (FIG. 10A) Pancreatic trypsin activation measured with fluorogenic substrate, normalized to total protein. (FIG. 10B) Edema measured as % wet weight. (FIG. 10C) Apoptosis evaluated by TUNEL positive cells. (FIG. 10D) Neutrophils (Ly-6B) and (FIG. 10E) macrophages (F4/80) were quantified. Pancreas H&E sections (FIG. 10G) were evaluated for edema, pyknotic nucei, and vacuoles to derive morphological score (FIG. 10F). *p<0.05 vs. WT-CER, +/−SEM, n=5.
A single dose of renalase was given intraperitoneally (100 μg peptide/25 g body weight) 2 hours after inducing cerulein-pancreatitis. Six hourly injections IP of 50 μg/kg and animals were sacrificed at hour 7. Histologic pancreatitis severity was evaluated by two blinded reviewers. […] N=4 mice in each group.
To determine whether the protective of renalase observed in isolated acini was relevant in vivo, WT mice were pretreated (1 hour) with a single dose of the renalase peptide (RP-220) intraperitoneally (100 μg peptide/25 g body weight) prior to inducing cerulein-pancreatitis (6 hourly injections IP of 50 μg/kg). […]

p38 MAPK = conditions: HK-2 cell, treatment alone; Wang et al., 2014; cited from earlier work
isolated mouse acini [3] = test: Injury of isolated mouse pancreatic acini (MTT, LDH release, H&E histology); format: cell-based; conditions: WT mouse acini, renalase 25 μg/mL, cerulein
Experimental: as §1
FIGS. 13A-13C, depict the results of experiments showing caloxin blocks the protective effects of renalase. […]
Next, it was assessed whether pretreatment with recombinant human renalase reduces injury in pancreatitis. This was first assessed in isolated groups of murine acinar cells (acini) that were exposed to supraphysiologic concentrations of cerulein and carbachol (which induces early acinar cell pancreatitis responses) in isolated WT mouse acini and acini isolated from renalase deficient mice in vitro (FIG. 9). […]

B1: recombinant renalase: recombinant full-length human renalase, secretory flavoprotein oxidase; synthesized as in Desir et al., 2012; SEQ ID NO: 8 or 9 (protein)
chain: ALLRRQTSGPLYLAVWDKAEDSGGRMTTACSPHNPQCTADLGAQYITCTPHYAKKHQRFYDELLAYGVLRPLSSPIEGMVMKEGDCNFVAPQGISSIIKHYLKESGAEVYFRHRVTQINLRDDKWEVSKQTGSPEQFDLIVLTMPVPEILQLQGDITTLISECQRQQLEAVSYSSRYALGLFYEAGTKIDVPWAGQYITSNPCIRFVSIDNKKRNIESSEIGPSLVIHTTVPFGVTYLEHSIEDVQELVFQQLENILPGLPQPIATKCQKWRHSQVTNAAANCPGQMTLHHKPFLACGGDGFTQSNFDGCITSALCVLEALKNYI
- trypsinogen activation induced by cerulein (isolated mouse acini [1]; WT mouse acini, renalase 25 μg/mL 30 minutes pretreatment, supraphysiologic (100 nM) cerulein): reduced
- trypsinogen activation induced by carbachol (isolated mouse acini [1]; WT mouse acini, renalase 25 μg/mL 30 minutes pretreatment, supraphysiologic (1000 μM) carbachol): reduced
- effect on untreated acini (isolated mouse acini [1]; no stimulation): no effect
- effect on acini treated with physiologic stimulation (isolated mouse acini [1]; physiologic cerulein (0.1 nM) or carbachol (1 μM)): no effect
- trypsinogen activation in acini from renalase knockout (KO) mice (isolated mouse acini [1]; renalase 25 μg/mL, cerulein 0.1 nM or 100 nM, 30 minutes): reduced
- blood pressure ([2]; rodents, Xu et al., 2005, Milani et al., 2011): decreases blood pressure
- plasma catecholamines ([2]; wild type (WT) mice): lowers
- systemic blood pressure ([2]; wild type (WT) mice): lowers
- ERK phosphorylation (ERK): rapidly increased
- activating MAPK signaling in renalase KO mice (renalase KO mice): neither renalase nor RP-220 is effective
- protecting renalase KO mice against mild or severe ischemic AKI (renalase KO mice): neither renalase nor RP-220 is effective
- individual and aggregate histologic scores of pancreatitis (WT mice): significantly decreased injury; also recorded: significantly less
- p38 phosphorylation (p38 MAPK): rapidly increased
- injury of acini in vitro (MTT accumulation, LDH release) (isolated mouse acini [3]): reduce

From patent US11124779B2, “Compositions and methods for treating and preventing pancreatitis, renal injury and cancer” (Yale University, priority 2014, dated 2021)
